Measured values from patent publication US7067484 (Genentech, dated 2006).

Biological target: CD4-IgG (human, UniProt P01730 26-205)
Test: immunoaffinity chromatography of BT20 conditioned medium on CD4-IgG-Protein A precolumn, SDS-PAGE with silver staining
Procedure: BT20 cells were grown to 80% confluence in 150 mm plates, harvested by 5 mM EDTA in PBS, and seeded into […] roller bottles with growth medium. After 1 week of growth the cells were nearly confluent. The growth medium was removed, the cells washed with PBS, and serum-free growth medium was added. After 5 days, conditioned medium was harvested (12 liters from 72 roller bottles), centrifuged, sterile filtered, concentrated in a 12 kD molecular weight cutoff Amicon filter, and stored at −70° C.
200 ml of BT20 conditioned media, concentrated as described above from 12 liters and frozen, was thawed, centrifuged at 17,000 rpm in a Sorvall SS34 rotor, and filtered through a 0.45 µm filter to clarify the solution. The 200 ml was pumped through a 2.0 ml CD4-IgG—Protein A (CD4-IgG covalently linked to Protein A through IgG moiety) immunoaffinity precolumn and a 1.0 ml REK7-IgG—Protein A (REK7-IgG covalently linked to Protein A through IgG moiety) immunoaffinity column in tandem with a flow rate of 0.5 ml/min. All chromatography was carried out at 4° C. […] The eluates were brought to pH 7.4 by the addition of 50 mM potassium phosphate, and an aliquot of each was analyzed by sodium dodecycl sulfate (SDS)—polyacrylamide gel electrophoresis (PAGE). […]

binding result: no binding
B1: AL-1 (REK7 ligand) purified from BT20 cell conditioned medium (ligand)
chain: QDPGSKAVADRYAVYWNSSNPRFQRGDYHIDVCINDYLDVFCPHYEDSVPEDKTERYVLYMVNFDGYSACDHTSKGFKRWECNRPHSPNGPLKFSEKFQLFTPFSLGFEFRPGREYFYISSAIPDNGRRSCLKLKVFVRPTNSCMKTIGVHDRVFDVNDKVENSLEPADDTVHESAEPSRGEN
notes: Soluble forms in serum-free conditioned medium of human BT20 cells; The 27,000 and 25,000 Dalton proteins appeared to be proteolytically processed forms of the 28,000 Dalton protein; also called 28,000, 27,000 and 25,000 Dalton proteins; BT20 cell-derived AL-1
